Laboratory results from publication PMC12521514.

T1: Staphylococcus aureus ClpP wild type (Staphylococcus aureus), Q2G036
T1 chain: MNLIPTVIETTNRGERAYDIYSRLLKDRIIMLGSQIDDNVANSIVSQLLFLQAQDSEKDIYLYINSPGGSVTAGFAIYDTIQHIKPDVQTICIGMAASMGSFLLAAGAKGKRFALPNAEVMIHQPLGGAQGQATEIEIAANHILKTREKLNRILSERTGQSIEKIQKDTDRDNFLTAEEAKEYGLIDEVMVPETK

B1: Staphylococcus aureus ClpP wild type, Q2G036 1-195 (enzyme)
chain: T1 chain

Experiments:
[1] = biological target: ClpP-N12A (Staphylococcus aureus) (UniProt Q2G036); assay: negative stain EM
[2] = biological target: T1, Staphylococcus aureus ClpP wild type …; details: remark: other sources report otherwise

Row | Molecule | stoichiometry N [1] | stoichiometry N [2]
1 | ClpP-N12A (from UniProt Q2G036) (enzyme) | 14 | –
2 | B1 | – | 14
